# Measurements published in article doi:10.1101/2025.10.09.681077.
# Assays:
# Assay in all cases: partitioning into condensates
# PLPPR3 ICDΔ345 = PLPPR3 ICDΔ345 (UniProt Q7TPB0)
# [1] = biological target: PLPPR3 intracellular domain (ICD), purification construct HA-M1-PLPPR3 ICD-His (UniProt Q7TPB0)
# PLPPR3 ICDΔ399 = PLPPR3 ICDΔ399 (UniProt Q7TPB0)
# [2] = biological target: PLPPR3 ICDΔ345/Δ399 (double mutant) (UniProt Q7TPB0)
substance,measurement,setting,value
alpha-actin (from UniProt P68032 1-377) (natural protein),"partition coefficient of G-actin into condensates, k actin (Cin/Cout)",PLPPR3 ICDΔ345,15.2
same,"partition coefficient of G-actin into condensates, k actin (Cin/Cout)",[1],15.4
same,"partition coefficient of G-actin into condensates, k actin (Cin/Cout)",PLPPR3 ICDΔ399,11.8
same,"partition coefficient of G-actin into condensates, k actin (Cin/Cout)",[2],11.8
